Results: publication PMC4102840 (Journal of Biomedical Research, 2014)

Biological target: T1, cyan fluorescent protein (CFP)-SR-A (class A scavenger receptor) (human, UniProt P21757 1-451)
T1 sequence (looked up): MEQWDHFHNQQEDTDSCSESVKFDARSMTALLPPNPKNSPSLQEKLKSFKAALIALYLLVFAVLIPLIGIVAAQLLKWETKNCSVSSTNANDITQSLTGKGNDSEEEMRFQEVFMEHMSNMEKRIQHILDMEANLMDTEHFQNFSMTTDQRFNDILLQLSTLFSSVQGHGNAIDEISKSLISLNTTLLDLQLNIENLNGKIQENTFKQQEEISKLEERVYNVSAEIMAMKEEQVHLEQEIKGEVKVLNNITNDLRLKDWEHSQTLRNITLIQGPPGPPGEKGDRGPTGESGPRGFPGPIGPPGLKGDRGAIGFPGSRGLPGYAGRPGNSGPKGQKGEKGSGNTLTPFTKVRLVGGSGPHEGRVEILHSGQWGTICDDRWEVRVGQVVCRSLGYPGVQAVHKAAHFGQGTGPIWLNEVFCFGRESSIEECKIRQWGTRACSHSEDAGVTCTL
Assay: FRET or BRET

B1: yellow fluorescent protein (YFP)-GRP78 (78 kDa glucose-regulated protein) (natural protein)
chain: not shown
FR (mean FRET ratio): 2.17
